Patent publication US7244430 (CRUCELL HOLLAND B V, dated 2007)

T1: recombinantly expressed purified soluble WNV E protein (strain 382-99) (West Nile virus strain 382-99, UniProt Q9Q6P4 291-696)
T1 construct: also called recombinant WNV-E protein; truncated E protein; not shown: Myc tag and His tag
T1 sequence: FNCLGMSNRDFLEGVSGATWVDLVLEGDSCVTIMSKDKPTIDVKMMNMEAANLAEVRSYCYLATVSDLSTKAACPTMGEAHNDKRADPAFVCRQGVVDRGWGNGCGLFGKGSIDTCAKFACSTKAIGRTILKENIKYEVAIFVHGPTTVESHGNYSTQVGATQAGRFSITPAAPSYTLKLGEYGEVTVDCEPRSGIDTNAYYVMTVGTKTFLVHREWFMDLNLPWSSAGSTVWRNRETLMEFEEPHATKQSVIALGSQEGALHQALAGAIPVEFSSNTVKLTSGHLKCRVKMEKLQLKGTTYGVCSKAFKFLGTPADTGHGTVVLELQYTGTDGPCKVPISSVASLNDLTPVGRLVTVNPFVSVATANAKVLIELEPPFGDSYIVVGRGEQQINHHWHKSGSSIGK

B1: SC04-283 (scFv)
scFv: EVQLVQSGAEVKKSGESLKISCKGSGYTFNTYWIGWVRQMPGKGLEWMGIIYPGDSDTIYSPSFQGQVTISADKSISTAYLQWSSLKASDSAMYYCARLTFRRGYSGSDSFLPPGDFDYWGQGTLVTVSSGTGGSGGTGSGTGGSTDIQMTQSPSTLSASVGDRVTITCRASQSISSWLAWYQQKPGKAPNLLIYAASSLQSGVPSRFSGSGSGTDFTLTISSLQPDDSATYYCQQYNTYPLTFGGGTKVEIKR
B2: SC04-325 (scFv)
scFv: QMQLVQSGAEVKKPGSSVKVSCKASGDTFSSYAISWVRQAPGQGLEWMGGIFGTASYAQKFQGRVTITADESTSTAYMELSSLRSEDTAVYYCARGGMATTPGLDYWGQGTLVTVSSGTGGSGGTGSGTGGSTDIQLTQSPDSLAVSLGERATINCKSSQSVLYSSNNKNYLAWYQQKPGQPPKLLIYWASTRESGVPDRFSGSGSGTDFTLTISSLQAEDVAVYYCQQYYSTPLTFGQGTKVEIKR
B3: SC04-353 (scFv)
scFv: EVQLVQSGGGVVQPGRSLRLSCAASGFTFSNYAMHWVRQAPGKGLEWVAVISYDGGNKYYADSVKGRFTMSRDNSKNTLYLQMNSLRAEDTAVYYCARDFWSGYSMVDSYYYYMDVWGKGTTVTVSSGTGGSGGTGSGTGGSTETTLTQSPGTLSLSPGERATLSCRASQSVSNTFLAWYQQKPGQAPRLLIYGASSRATGIPDRFSGSGSGTDFTLTISRLEPEDFAAYYCQQYGSSLTFGPGTKVDIKR
B4: SC04-299 (scFv)
scFv: EVQLVETGGGVVQPGRSLRLSCAASGFTFSGYAMHWVRQAPGKGLDWVAVISYDGSEKYSADSVKGRFTISRDNSKNTLYLQMNSLRAEDTAVYYCAKESGGPIWYKYYGVDVWGQGTTVTVSSGTGGSGGTGSGTGGSTSYVLTQPPSLSAAPRQRVTISCSGSSSNIGNYGVNWYQQLPGKAPKLLIYYDDLLPSGVSDRFSGSKSGTSASLAISGLQSEDEGDYYCAAWDDTLSAWVFGGGTKLTVLG
B5: SC04-289 (scFv)
scFv: QMQLVQSGAEVKKPGESLRISCKGSGYSFTSNWITWVRQMPGKGLEWMGRIDPSDSYTNYSPSFQGHVTISADKSISTAYLQWSSLKASDTAMYYCARDVVGVGASDYYYYMDVWGKGTTVTVSSGTGGSGGTGSGTGGSTEIVLTQSPGTLSLSPGETATLSCRTSQSVSSSYLGWYQQKPGQAPRLLIYGASIRATGIPARFSGSGSGTEFTLTIDSLQSEDFAVYYCQQYNNWPPITFGQGTRLEIKR
B6: SC04-311 (scFv)
scFv: EVQLVQSGGGVVQPGRSLRLSCVASGFTFSKDAMHWVRQAPGKGLEWVAVISYDGSDKHYADSVKGRVTISRDNSRKTLYLRMDSLRAEDTALYYCARGYNSGHYFDYWGQGTLITVSSGTGGSGGTGSGTGGSTQSVLTQPPSVSAAPGQKVTISCSGTSSNIGDNYVSWYQHLPGTAPKLLIYDNNKRPSGIPDRFSGSKSGTSATLGVTGLQTGDEADYYCGTWDSSLTAVVFGGGTKLTVLG
B7: SC04-271 (scFv)
scFv: EVQLVETGAEVKKPGESLRISCKGSGYTFNNYWIGWVRQMPGKGLEWMGIIYPGDSDTRYSPSVQGHVTISADKSINTAYLQWSSLKASDTAVYYCARRPGYDYGFYYFDYWGQGTLVTVSSGTGGSGGTGSGTGGSTQSALTQPRSVSGSPGQSVTISCTGTSSDVGGYNYVSWYQHHPGKAPKLMIYDVSNRPLGVSNRFSGSKSGNTASLTISGLQAEDEADYYCSSYTSSSTYVFGTGTHLTVLS
B8: SC04-361 (scFv)
scFv: EVQLVQSGAEVKKPGESLKISCKASGFSFSTYWIGWVRQMPGKGLEWMGIIYPADSDTRYSPSFQGQVTISADKSISTAYLQWSSLKASDTAMYYCARLRGPYYDFWNGYRETHDAFNVWGQGTMVTVSSGTGGSGGTGSGTGGSTDVVMTQSPDSLAVSLGERATINCKSSQNILDNSDNKNFLAWYQQKPGQPPKLLIYWASARESGVPDRFSGSGSGTDFTLTISSLQAEDVALYYCQQYYNTPITFGQGTRLEIKR
B9: CR5080 (antibody, V domains shown)
VH: QVTLKESGPTLVKPTQTLTLTCTFSGFSLSTSGVGVGWIRQPPGKALEWLAVIYWNDDKLYRPSLKSRLTITKDTSKNQVVLTMTKMDPVDTATYYCAHRHRYYDISGYYRLFSDAFDIWGQGTMVTVSS
VL: QSVLTQPPSVSGAPGQRVTISCTGSSSNIGAGYDVHWYQQLPGTAPKLLIYGNSNRPSGVPDRFSGSKSGTSASLAITGLQAEDEADYYCQSYDSSLSGWAFGGGTKLTVLG
B10: CRM4374 (antibody)
heavy: QITLKESGPTLVKPTQTLTLTCTFSGFSLSTSGVGVGWIRQPPGKALEWLAVIYWNDDKLYRPSLKSRLTITKDTSKNQVVLTMTKMDPVDTATYYCAHRHRYYDISGYYRLFSDAFDIWGQGTMVTVSSASAPTLFPLVSCENSPSDTSSVAVGCLAQDFLPDSITFSWKYKNNSDISSTRGFPSVLRGGKYAATSQVLLPSKDVMQGTDEHVVCKVQHPNGNKEKNVPLPVIAELPPKVSVFVPPRDGFFGNPRKSKLICQATGFSPRQIQVSWLREGKQVGSGVTTDQVQAEAKESGPTTYKVTSTLTIKESDWLSQSMFTCRVDHRGLTFQQNASSMCVPDQDTAIRVFAIPPSFASIFLTKSTKLTCLVTDLTTYDSVTISWTRQNGEAVKTHTNISESHPNATFSAVGEASICEDDWNSGERFTCTVTHTDLPSPLKQTISRPKGVALHRPDVYLLPPAREQLNLRESATITCLVTGFSPADVFVQWMQRGQPLSPEKYVTSAPMPEPQAPGRYFAHSILTVSEEEWNTGETYTCVVAHEALPNRVTERTVDKSTGKPTLYNVSLVMSDTAGTCY
light: QSVLTQPPSVSGAPGQRVTISCTGSSSNIGAGYDVHWYQQLPGTAPKLLIYGNSNRPSGVPDRFSGSKSGTSASLAITGLQAEDEADYYCQSYDSSLSGSVFGGGTKLTVLGQPKAAPSVTLFPPSSEELQANKATLVCLISDFYPGAVTVAWKADSSPVKAGVETTTPSKQSNNKYAASSYLSLTPEQWKSHRSYSCQVTHEGSTVEKTVAPTECS
notes: also called IgM form of CR4374
B11: CR4374 (antibody)
heavy: not shown
light: B10 light
notes: also called CR374
B12: SC04-374 (scFv)
scFv: QVTLKESGPTLVKPTQTLTLTCTFSGFSLSTSGVGVGWIRQPPGKALEWLAVIYWNDDKLYRPSLKSRLTITKDTSKNQVVLTMTKMDPVDTATYYCAHRHRYYDISGYYRLFSDAFDIWGQGTMVTVSSGTGGSGGTGSGTGGSTQSVVTQPPSVSGAPGQRVTISCTGSSSNIGAGYDVHWYQQLPGTAPKLLIYGNSNRPSGVPDRFSGSKSGTSASLAITGLQAEDEADYYCQSYDSSLSGSVFGGGTKLTVLG

Legend:
[1] = target: T2, West Nile virus strain USA99b (strain 385-99) (West Nile virus strain 385-99 (USA99b)); experiment: phage ELISA, coated whole inactivated WNV
T2 construct: mature; also called WNV; WN virus

[2] = target: T1, recombinantly expressed purified …; experiment: phage ELISA, coated recombinant soluble WNV E protein
[3] = target: T1, recombinantly expressed purified …; experiment: as above; remark: listed apart in the source
[4] = target: T3, mutant WNV-like particles A365V (West Nile virus strain 382-99, UniProt Q9Q6P4 291-791; Q9Q6P4 216-290); experiment: ELISA on mutant VLP, normalized to wild-type VLP
T3 construct: also called mutant A365V

[5] = target: T4, mutant WNV-like particles K307E (West Nile virus strain 382-99, UniProt Q9Q6P4 291-791; Q9Q6P4 216-290); experiment: ELISA on mutant VLP
T4 construct: also called mutant K307E

[6] = target: T5, WNV-like particles (wild-type VLP, strain 382-99 M and E proteins) (West Nile virus strain 382-99, UniProt Q9Q6P4 291-791; Q9Q6P4 216-290); experiment: titration of purified IgM on VLPs
T5 construct: also called West Nile virus-like particles; WT

[7] = target: T6, mutant WNV-like particles T332K (West Nile virus strain 382-99, UniProt Q9Q6P4 291-791; Q9Q6P4 216-290); experiment: ELISA on mutant VLP, normalized to wild-type VLP
T6 construct: also called mutant T332K

Binder	OD 492 nm [1] [OD 492 nm]	OD 492 nm [2] [OD 492 nm]	other results
B1	1.21	0.074	–
B2	–	1.4	–
B3	–	0.099	binding result [3]: no binding
B4	1.07	–	–
B5	0.759	1.39	–
B6	1.04	1.54	–
B7	0.984	0.608	–
B8	–	0.076	binding result [3]: no binding
B9	–	–	% of wild-type binding [4]: ~37%; binding result [5]: no binding
B10	–	–	binding result [6]: binds
B11	–	–	% of wild-type binding [7]: ~75%; binding result [5]: no binding
B12	–	1.36	–
